{
  "source": "patent CN117050178A",
  "about": "(BEIJING BIOSYSTEMS BIOLOGICAL TECH CO LTD, dated 2023)",
  "key": {"人IL-7蛋白": {"biological_target": "T1, 人IL-7蛋白 (human, UniProt P13232 26-177)", "T1 construct": "also called 人源IL-7", "T1 sequence (looked up)": "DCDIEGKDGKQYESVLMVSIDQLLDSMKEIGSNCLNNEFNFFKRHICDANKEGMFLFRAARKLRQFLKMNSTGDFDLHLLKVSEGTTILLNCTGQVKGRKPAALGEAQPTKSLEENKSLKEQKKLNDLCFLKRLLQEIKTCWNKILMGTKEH", "assay": "indirect ELISA, cell supernatant on coated human IL-7 (2 μg/mL)"}, "人源IL-2蛋白": {"biological_target": "人源IL-2蛋白 (human, UniProt P60568 21-153)", "sequence (P60568 21-153 limits assumed)": "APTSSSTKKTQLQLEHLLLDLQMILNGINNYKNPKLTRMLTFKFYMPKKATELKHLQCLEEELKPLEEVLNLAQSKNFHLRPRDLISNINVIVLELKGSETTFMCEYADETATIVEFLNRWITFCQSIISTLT", "assay": "indirect ELISA, cell supernatant on coated cytokine"}, "人源GM-CSF蛋白": {"biological_target": "人源GM-CSF蛋白 (human, UniProt P04141 18-144)", "sequence (P04141 18-144 limits assumed)": "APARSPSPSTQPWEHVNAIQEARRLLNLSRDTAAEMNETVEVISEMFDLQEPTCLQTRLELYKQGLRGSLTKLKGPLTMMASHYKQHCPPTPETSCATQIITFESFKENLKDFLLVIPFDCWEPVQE", "assay": "indirect ELISA, cell supernatant on coated cytokine"}, "人源IL-4蛋白": {"biological_target": "T2, 人源IL-4蛋白 (human, UniProt P05112 25-153)", "T2 sequence (looked up)": "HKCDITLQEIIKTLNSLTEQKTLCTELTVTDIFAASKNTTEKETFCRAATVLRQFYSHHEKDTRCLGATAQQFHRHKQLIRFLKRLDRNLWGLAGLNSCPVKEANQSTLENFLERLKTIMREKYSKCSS", "assay": "indirect ELISA, cell supernatant on coated cytokine"}, "人源IL-6蛋白": {"biological_target": "人源IL-6蛋白 (human, UniProt P05231 30-212)", "assay": "indirect ELISA, cell supernatant on coated cytokine"}, "人源TNF-alpha蛋白": {"biological_target": "人源TNF-alpha蛋白 (human, UniProt P01375 77-233)", "sequence (P01375 77-233 limits assumed)": "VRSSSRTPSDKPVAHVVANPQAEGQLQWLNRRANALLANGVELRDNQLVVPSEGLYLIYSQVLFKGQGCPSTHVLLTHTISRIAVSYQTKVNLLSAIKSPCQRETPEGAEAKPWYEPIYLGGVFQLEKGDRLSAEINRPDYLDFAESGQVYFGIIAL", "assay": "indirect ELISA, cell supernatant on coated cytokine"}, "人源IL-21蛋白": {"biological_target": "人源IL-21蛋白 (human, UniProt Q9HBE4 32-162, limits assumed)", "sequence (Q9HBE4 32-162 limits assumed)": "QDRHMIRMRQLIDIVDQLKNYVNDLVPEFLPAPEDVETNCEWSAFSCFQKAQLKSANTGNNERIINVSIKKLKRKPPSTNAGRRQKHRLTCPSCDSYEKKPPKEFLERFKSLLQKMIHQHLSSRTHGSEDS", "assay": "indirect ELISA, cell supernatant on coated cytokine"}, "人源IL-10蛋白": {"biological_target": "人源IL-10蛋白 (human, UniProt P22301 19-178)", "sequence (P22301 19-178 limits assumed)": "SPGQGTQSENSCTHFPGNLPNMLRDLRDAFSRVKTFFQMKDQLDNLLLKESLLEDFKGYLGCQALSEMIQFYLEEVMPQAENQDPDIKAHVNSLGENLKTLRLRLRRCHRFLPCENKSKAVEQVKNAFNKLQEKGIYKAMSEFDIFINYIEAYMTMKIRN", "assay": "indirect ELISA, cell supernatant on coated cytokine"}, "人源IL-15蛋白": {"biological_target": "人源IL-15蛋白 (human, UniProt P40933 49-162)", "sequence (P40933 49-162 limits assumed)": "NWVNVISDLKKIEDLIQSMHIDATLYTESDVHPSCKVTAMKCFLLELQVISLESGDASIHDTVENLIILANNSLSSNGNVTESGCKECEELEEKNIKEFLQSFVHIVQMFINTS", "assay": "indirect ELISA, cell supernatant on coated cytokine"}},
  "data": [
    {"binder": "抗体8E8B10 (antibody, V domains shown, Mouse hybridoma monoclonal antibody; also called Clone 8E8B10; 克隆号8E8B10) VH: QVQLQQPGAELLRPGASVKLSCKTSGFTFTRYWINWVKQRPGQGLEWIGMIDPFDSETHYNQVFKDKATLTVDKSSSTAYMYMSSLTSEDSAVYYCARYFVYFDTVDFWGQGTSLTVSS VL: DVVMTQTPLSLPVSLGGQASISCRSGQSLVHSDGNTYLHWYLQRPGQSPKLLIYKVSNRFSGVPDRFSGSGSGTNFTLKISRVEAEDLGVYFCSQNTHVPYTFGGGTKLEMK", "values": [
      {"measurement": "binding result", "setting": "人IL-7蛋白", "result": "binds"},
      {"measurement": "binding result", "setting": "人源IL-2蛋白", "result": "no binding (tested: antigen coated at 2 μg/mL)"},
      {"measurement": "binding result", "setting": "人源GM-CSF蛋白", "result": "no binding (tested: antigen coated at 2 μg/mL)"},
      {"measurement": "binding result", "setting": "人源IL-4蛋白", "result": "no binding (tested: antigen coated at 2 μg/mL)"},
      {"measurement": "binding result", "setting": "人源IL-6蛋白", "result": "no binding (tested: antigen coated at 2 μg/mL)"},
      {"measurement": "binding result", "setting": "人源TNF-alpha蛋白", "result": "no binding (tested: antigen coated at 2 μg/mL)"},
      {"measurement": "binding result", "setting": "人源IL-21蛋白", "result": "no binding (tested: antigen coated at 2 μg/mL)"},
      {"measurement": "binding result", "setting": "人源IL-10蛋白", "result": "no binding (tested: antigen coated at 2 μg/mL)"},
      {"measurement": "binding result", "setting": "人源IL-15蛋白", "result": "no binding (tested: antigen coated at 2 μg/mL)"}
    ]}
  ]
}
